Laboratory results reported in PMC2714540.

Target: Smurf1 (UniProt Q9HCE7)
Test: binding to Smurf1, pull-down format inferred
Settings: reference: Tal210-605 wild type; sites S425

binding against the reference: stronger
Substance: talin (talin head, TH) 210-605 (from UniProt P26039) Tal210-605 S425A
